# From the supplement of paper PMC9112550, “Optimization of the antimicrobial peptide Bac7 by deep mutational scanning” (BMC Biology, 2022)
# Tested on: Escherichia coli TOP10
# Experiment: shrunken log2 fold change of peptide-encoding DNA abundance (4.5 h post-induction vs induction); higher = less antimicrobial activity (less host growth inhibition)
# Details: time post-induction: 4.5 h; library: site-saturation at positions 5, 18, 19, 20
# 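Note: peptides expressed intracellularly from a pBAD plasmid library in pooled LB shake-flask culture, induced with 0.3% L-arabinose, DNA abundance read by NGS, three biological replicates, DESeq2 with apeglm shrinkage.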
row,Sequence,shrunken log2 fold change
1,RRIRCRPPRLPRPRPRPQDYPRP,-0.176
2,RRIRCRPPRLPRPRPRPQFFPRP,-0.433
3,RRIRCRPPRLPRPRPRPQHWPRP,0.102
4,RRIRCRPPRLPRPRPRPQMWPRP,0.0606
5,RRIRCRPPRLPRPRPRPQNKPRP,-0.526
6,RRIRCRPPRLPRPRPRPQNTPRP,-0.691
7,RRIRCRPPRLPRPRPRPQPEPRP,0.13
8,RRIRCRPPRLPRPRPRPQRCPRP,-0.0802
9,RRIRCRPPRLPRPRPRPQRPPRP,0.166
10,RRIRCRPPRLPRPRPRPQSQPRP,0.131
11,RRIRCRPPRLPRPRPRPQTWPRP,0.295
12,RRIRCRPPRLPRPRPRPQVFPRP,-0.13
13,RRIRCRPPRLPRPRPRPQVGPRP,-0.0906
14,RRIRCRPPRLPRPRPRPQVKPRP,0.0486
15,RRIRCRPPRLPRPRPRPQVNPRP,-0.246
16,RRIRCRPPRLPRPRPRPQYPPRP,-0.329
17,RRIRCRPPRLPRPRPRPRAAPRP,0.779
18,RRIRCRPPRLPRPRPRPRCAPRP,0.346
19,RRIRCRPPRLPRPRPRPRDFPRP,0.0317
20,RRIRCRPPRLPRPRPRPRDNPRP,2.6
21,RRIRCRPPRLPRPRPRPRDTPRP,0.0379
22,RRIRCRPPRLPRPRPRPRENPRP,0.439
23,RRIRCRPPRLPRPRPRPRFNPRP,-0.288
24,RRIRCRPPRLPRPRPRPRFPPRP,-0.0867
25,RRIRCRPPRLPRPRPRPRIAPRP,0.0204

row,Sequence,shrunken log2 fold change
1,RRIRCRPPRLPRPRPRPRIRPRP,0.0722
2,RRIRCRPPRLPRPRPRPRITPRP,-0.212
3,RRIRCRPPRLPRPRPRPRKVPRP,0.196
4,RRIRCRPPRLPRPRPRPRLGPRP,0.485
5,RRIRCRPPRLPRPRPRPRMLPRP,0.0183
6,RRIRCRPPRLPRPRPRPRPKPRP,0.901
7,RRIRCRPPRLPRPRPRPRQDPRP,-0.0742
8,RRIRCRPPRLPRPRPRPRQGPRP,0.436
9,RRIRCRPPRLPRPRPRPRRKPRP,0.399
10,RRIRCRPPRLPRPRPRPRTHPRP,-0.168
11,RRIRCRPPRLPRPRPRPRTKPRP,0.246
12,RRIRCRPPRLPRPRPRPRVCPRP,0.284
13,RRIRCRPPRLPRPRPRPRWCPRP,-0.131
14,RRIRCRPPRLPRPRPRPRYGPRP,-0.499
15,RRIRCRPPRLPRPRPRPSARPRP,0.16
16,RRIRCRPPRLPRPRPRPSCCPRP,0.0437
17,RRIRCRPPRLPRPRPRPSCYPRP,-0.295
18,RRIRCRPPRLPRPRPRPSDGPRP,-0.0084
19,RRIRCRPPRLPRPRPRPSECPRP,-0.0818
20,RRIRCRPPRLPRPRPRPSEPPRP,-0.184
21,RRIRCRPPRLPRPRPRPSFGPRP,-0.496
22,RRIRCRPPRLPRPRPRPSGFPRP,-0.218
23,RRIRCRPPRLPRPRPRPSGMPRP,-0.35
24,RRIRCRPPRLPRPRPRPSGNPRP,-0.598
25,RRIRCRPPRLPRPRPRPSGQPRP,-0.0552

row,Sequence,shrunken log2 fold change
1,RRIRCRPPRLPRPRPRPSHCPRP,-0.393
2,RRIRCRPPRLPRPRPRPSHKPRP,-0.641
3,RRIRCRPPRLPRPRPRPSIHPRP,-0.929
4,RRIRCRPPRLPRPRPRPSILPRP,-0.739
5,RRIRCRPPRLPRPRPRPSIWPRP,-0.342
6,RRIRCRPPRLPRPRPRPSNIPRP,-0.319
7,RRIRCRPPRLPRPRPRPSQIPRP,-0.698
8,RRIRCRPPRLPRPRPRPSRYPRP,-0.285
9,RRIRCRPPRLPRPRPRPSTPPRP,-0.382
10,RRIRCRPPRLPRPRPRPSVHPRP,-0.575
11,RRIRCRPPRLPRPRPRPSVWPRP,0.238
12,RRIRCRPPRLPRPRPRPSWEPRP,-0.0769
13,RRIRCRPPRLPRPRPRPSWKPRP,-0.0761
14,RRIRCRPPRLPRPRPRPSYTPRP,-0.748
15,RRIRCRPPRLPRPRPRPTCDPRP,0.187
16,RRIRCRPPRLPRPRPRPTCIPRP,-0.307
17,RRIRCRPPRLPRPRPRPTDEPRP,2.52
18,RRIRCRPPRLPRPRPRPTDFPRP,-0.759
19,RRIRCRPPRLPRPRPRPTDTPRP,-0.438
20,RRIRCRPPRLPRPRPRPTDWPRP,0.169
21,RRIRCRPPRLPRPRPRPTEEPRP,0.325
22,RRIRCRPPRLPRPRPRPTEMPRP,-0.102
23,RRIRCRPPRLPRPRPRPTFEPRP,-0.279
24,RRIRCRPPRLPRPRPRPTGVPRP,0.619
25,RRIRCRPPRLPRPRPRPTGWPRP,0.314

row,Sequence,shrunken log2 fold change
1,RRIRCRPPRLPRPRPRPTHTPRP,0.388
2,RRIRCRPPRLPRPRPRPTIIPRP,-0.343
3,RRIRCRPPRLPRPRPRPTINPRP,-0.783
4,RRIRCRPPRLPRPRPRPTIWPRP,0.105
5,RRIRCRPPRLPRPRPRPTLDPRP,0.337
6,RRIRCRPPRLPRPRPRPTMDPRP,-0.237
7,RRIRCRPPRLPRPRPRPTMFPRP,-0.2
8,RRIRCRPPRLPRPRPRPTMNPRP,-0.421
9,RRIRCRPPRLPRPRPRPTNHPRP,-0.573
10,RRIRCRPPRLPRPRPRPTNLPRP,-0.656
11,RRIRCRPPRLPRPRPRPTRIPRP,0.258
12,RRIRCRPPRLPRPRPRPTSQPRP,0.00813
13,RRIRCRPPRLPRPRPRPTTVPRP,-0.356
14,RRIRCRPPRLPRPRPRPTVYPRP,-0.915
15,RRIRCRPPRLPRPRPRPTYMPRP,-0.432
16,RRIRCRPPRLPRPRPRPTYWPRP,-0.113
17,RRIRCRPPRLPRPRPRPVAQPRP,0.159
18,RRIRCRPPRLPRPRPRPVCPPRP,0.0356
19,RRIRCRPPRLPRPRPRPVDIPRP,-0.241
20,RRIRCRPPRLPRPRPRPVEQPRP,-0.0247
21,RRIRCRPPRLPRPRPRPVGDPRP,0.551
22,RRIRCRPPRLPRPRPRPVGEPRP,0.0624
23,RRIRCRPPRLPRPRPRPVIDPRP,0.136
24,RRIRCRPPRLPRPRPRPVIKPRP,-0.0948
25,RRIRCRPPRLPRPRPRPVIVPRP,-0.208

row,Sequence,shrunken log2 fold change
1,RRIRCRPPRLPRPRPRPVKWPRP,-0.24
2,RRIRCRPPRLPRPRPRPVLDPRP,0.0892
3,RRIRCRPPRLPRPRPRPVLLPRP,-0.385
4,RRIRCRPPRLPRPRPRPVMLPRP,-0.433
5,RRIRCRPPRLPRPRPRPVMQPRP,-0.166
6,RRIRCRPPRLPRPRPRPVNDPRP,-0.186
7,RRIRCRPPRLPRPRPRPVNLPRP,2.47
8,RRIRCRPPRLPRPRPRPVNMPRP,-0.179
9,RRIRCRPPRLPRPRPRPVNVPRP,-0.249
10,RRIRCRPPRLPRPRPRPVPCPRP,0.177
11,RRIRCRPPRLPRPRPRPVPVPRP,0.0927
12,RRIRCRPPRLPRPRPRPVRRPRP,1.1
13,RRIRCRPPRLPRPRPRPVSIPRP,-0.549
14,RRIRCRPPRLPRPRPRPVVIPRP,-0.223
15,RRIRCRPPRLPRPRPRPVVKPRP,0.0236
16,RRIRCRPPRLPRPRPRPVVWPRP,0.354
17,RRIRCRPPRLPRPRPRPVWCPRP,-0.269
18,RRIRCRPPRLPRPRPRPVWHPRP,0.127
19,RRIRCRPPRLPRPRPRPVYPPRP,-0.559
20,RRIRCRPPRLPRPRPRPWAWPRP,-0.105
21,RRIRCRPPRLPRPRPRPWCGPRP,-0.288
22,RRIRCRPPRLPRPRPRPWDPPRP,-0.211
23,RRIRCRPPRLPRPRPRPWFNPRP,-1.12
24,RRIRCRPPRLPRPRPRPWGKPRP,-0.102
25,RRIRCRPPRLPRPRPRPWKFPRP,-0.318

row,Sequence,shrunken log2 fold change
1,RRIRCRPPRLPRPRPRPWKHPRP,-0.264
2,RRIRCRPPRLPRPRPRPWMEPRP,-0.344
3,RRIRCRPPRLPRPRPRPWRGPRP,0.185
4,RRIRCRPPRLPRPRPRPWSEPRP,-0.0285
5,RRIRCRPPRLPRPRPRPWSIPRP,0.0457
6,RRIRCRPPRLPRPRPRPWTNPRP,-0.0849
7,RRIRCRPPRLPRPRPRPWTYPRP,-0.015
8,RRIRCRPPRLPRPRPRPWVLPRP,-0.265
9,RRIRCRPPRLPRPRPRPWVTPRP,-0.652
10,RRIRCRPPRLPRPRPRPWVYPRP,-0.0957
11,RRIRCRPPRLPRPRPRPWWFPRP,0.0459
12,RRIRCRPPRLPRPRPRPWYRPRP,-0.705
13,RRIRCRPPRLPRPRPRPWYYPRP,-0.698
14,RRIRCRPPRLPRPRPRPYCVPRP,-0.517
15,RRIRCRPPRLPRPRPRPYDEPRP,-0.144
16,RRIRCRPPRLPRPRPRPYEEPRP,-0.255
17,RRIRCRPPRLPRPRPRPYEIPRP,-0.00133
18,RRIRCRPPRLPRPRPRPYELPRP,-0.18
19,RRIRCRPPRLPRPRPRPYFYPRP,-1
20,RRIRCRPPRLPRPRPRPYGEPRP,-0.432
21,RRIRCRPPRLPRPRPRPYGVPRP,-0.159
22,RRIRCRPPRLPRPRPRPYIMPRP,-1.48
23,RRIRCRPPRLPRPRPRPYMEPRP,-0.428
24,RRIRCRPPRLPRPRPRPYMHPRP,-0.31
25,RRIRCRPPRLPRPRPRPYMIPRP,-0.582
